The values below are quoted from earlier work in patent US9394339B2, “Stabilized formulations of peptides and proteins protecting against non-enzymatic degradation” (Lyotropic Therapeutics, Inc., priority 2007, dated 2016).

B1: Myeloperoxidase (1MHL): human protein (protein, UniProt P05164 165-745, looked up)
Myeloperoxidase: VTCPEQDKYRTITGMCNNRRSPTLGASNRAFVRWLPAEYEDGFSLPYGWTPGVKRNGFPVALARAVSNEIVRFPTDQLTPDQERSLMFMQWGQLLDHDLDFTPEPAARASFVTGVNCETSCVQQPPCFPLKIPPNDPRIKNQADCIPFFRSCPACPGSNITIRNQINALTSFVDASMVYGSEEPLARNLRNMSNQLGLLAVNQRFQDNGRALLPFDNLHDDPCLLTNRSARIPCFLAGDTRSSEMPELTSMHTLLLREHNRLATELKSLNPRWDGERLYQEARKIVGAMVQIITYRDYLPLVLGPTAMRKYLPTYRSYNDSVDPRIANVFTNAFRYGHTLIQPFMFRLDNRYQPMEPNPRVPLSRVFFASWRVVLEGGIDPILRGLMATPAKLNRQNQIAVDEIRERLFEQVMRIGLDLPALNMQRSRDHGLPGYNAWRRFCGLPQPETVGQLGTVLRNLKLARKLMEQYGTPNNIDIWMGGVSEPLKRKGRVGPLLACIIGTQFRKLRDGDRFWWENEGVFSMQQRQALAQISLPRIICDNTGITTVSKNNIFMSNSYPRDFVNCSTLPALNLASWREAS
B2: Bone morphogenetic protein 7 (1BMP): human protein (protein, UniProt P18075 293-431, looked up)
Bone morphogenetic protein 7: STGSKQRSQNRSKTPKNQEALRMANVAENSSSDQRQACKKHELYVSFRDLGWQDWIIAPEGYAAYYCEGECAFPLNSYMNATNHAIVQTLVHFINPETVPKPCCAPTQLNAISVLYFDDSSNVILKKYRNMVVRACGCH
B3: Interleukin-16 (1I16): human protein (protein, UniProt Q14005 1212-1332, looked up)
Interleukin-16: SAASASAASDVSVESTAEATVCTVTLEKMSAGLGFSLEGGKGSLHGDKPLTINRIFKGAASEQSETVQPGDEILQLGGTAMQGLTRFEAWNIIKALPDGPVTIVIRRKSLQSKETTAAGDS
B4: S-adenosylhomocysteine hydrolase (1A7A): human protein (protein, UniProt P23526 2-432, looked up)
Adenosylhomocysteinase: SDKLPYKVADIGLAAWGRKALDIAENEMPGLMRMRERYSASKPLKGARIAGCLHMTVETAVLIETLVTLGAEVQWSSCNIFSTQDHAAAAIAKAGIPVYAWKGETDEEYLWCIEQTLYFKDGPLNMILDDGGDLTNLIHTKYPQLLPGIRGISEETTTGVHNLYKMMANGILKVPAINVNDSVTKSKFDNLYGCRESLIDGIKRATDVMIAGKVAVVAGYGDVGKGCAQALRGFGARVIITEIDPINALQAAMEGYEVTTMDEACQEGNIFVTTTGCIDIILGRHFEQMKDDAIVCNIGHFDVEIDVKWLNENAVEKVNIKPQVDRYRLKNGRRIILLAEGRLVNLGCAMGHPSFVMSNSFTNQVMAQIELWTHPDKYPVGVHFLPKKLDEAVAEAHLGKLNVKLTKLTEKQAQYLGMSCDGPFKPDHYRY
B5: Acetylcholinesterase (1F8U): human protein (protein, UniProt P22303 32-614, looked up)
Acetylcholinesterase: EGREDAELLVTVRGGRLRGIRLKTPGGPVSAFLGIPFAEPPMGPRRFLPPEPKQPWSGVVDATTFQSVCYQYVDTLYPGFEGTEMWNPNRELSEDCLYLNVWTPYPRPTSPTPVLVWIYGGGFYSGASSLDVYDGRFLVQAERTVLVSMNYRVGAFGFLALPGSREAPGNVGLLDQRLALQWVQENVAAFGGDPTSVTLFGESAGAASVGMHLLSPPSRGLFHRAVLQSGAPNGPWATVGMGEARRRATQLAHLVGCPPGGTGGNDTELVACLRTRPAQVLVNHEWHVLPQESVFRFSFVPVVDGDFLSDTPEALINAGDFHGLQVLVGVVKDEGSYFLVYGAPGFSKDNESLISRAEFLAGVRVGVPQVSDLAAEAVVLHYTDWLHPEDPARLREALSDVVGDHNVVCPVAQLAGRLAAQGARVYAYVFEHRASTLSWPLWMGVPHGYEIEFIFGIPLDPSRNYTAEEKIFAQRLMRYWANFARTGDPNEPRDPKAPQWPPYTAGAQQYVSLDLRPLEVRRGLRAQACAFWNRFLPKLLSATDTLDEAERQWKAEFHRWSSYMVHWKNQFDHYSKQDRCSDL
B6: Farnesyltransferase (1EZF): human protein (protein, UniProt P37268 1-417, looked up)
Squalene synthase: MEFVKCLGHPEEFYNLVRFRIGGKRKVMPKMDQDSLSSSLKTCYKYLNQTSRSFAAVIQALDGEMRNAVCIFYLVLRALDTLEDDMTISVEKKVPLLHNFHSFLYQPDWRFMESKEKDRQVLEDFPTISLEFRNLAEKYQTVIADICRRMGIGMAEFLDKHVTSEQEWDKYCHYVAGLVGIGLSRLFSASEFEDPLVGEDTERANSMGLFLQKTNIIRDYLEDQQGGREFWPQEVWSRYVKKLGDFAKPENIDLAVQCLNELITNALHHIPDVITYLSRLRNQSVFNFCAIPQVMAIATLAACYNNQQVFKGAVKIRKGQAVTLMMDATNMPAVKAIIYQYMEEIYHRIPDSDPSSSKTRQIISTIRTQNLPNCQLISRSHYSPIYLSFVMLLAALSWQYLTTLSQVTEDYVQTGEH
B7: Catalase (1QQW): human protein (protein, UniProt P04040 2-527, looked up)
Catalase: ADSRDPASDQMQHWKEQRAAQKADVLTTGAGNPVGDKLNVITVGPRGPLLVQDVVFTDEMAHFDRERIPERVVHAKGAGAFGYFEVTHDITKYSKAKVFEHIGKKTPIAVRFSTVAGESGSADTVRDPRGFAVKFYTEDGNWDLVGNNTPIFFIRDPILFPSFIHSQKRNPQTHLKDPDMVWDFWSLRPESLHQVSFLFSDRGIPDGHRHMNGYGSHTFKLVNANGEAVYCKFHYKTDQGIKNLSVEDAARLSQEDPDYGIRDLFNAIATGKYPSWTFYIQVMTFNQAETFPFNPFDLTKVWPHKDYPLIPVGKLVLNRNPVNYFAEVEQIAFDPSNMPPGIEASPDKMLQGRLFAYPDTHRHRLGPNYLHIPVNCPYRARVANYQRDGPMCMQDNQGGAPNYYPNSFGAPEQQPSALEHSIQYSGEVRRFNTANDDNVTQVRAFYVNVLNEEQRKRLCENIAGHLKDAQIFIQKKAVKNFTEVHPDYGSHIQALLDKYNAEKPKNAIHTFVQSGSHLAAREKANL
B8: Pepsinogen (1HTR): human protein (protein, UniProt P20142 17-388, looked up)
pro-form: AVVKVPLKKFKSIRETMKEKGLLGEFLRTHKYDPAWKYRFGDLSVTYEPMAYMDAAYFGEISIGTPPQNFLVLFDTGSSNLWVPSVYCQSQACTSHSRFNPSESSTYSTNGQTFSLQYGSGSLTGFFGYDTLTVQSIQVPNQEFGLSENEPGTNFVYAQFDGIMGLAYPALSVDEATTAMQGMVQEGALTSPVFSVYLSNQQGSSGGAVVFGGVDSSLYTGQIYWAPVTQELYWQIGIEEFLIGGQASGWCSEGCQAIVDTGTSLLTVPQQYMSALLQATGAQEDEYGQFLVNCNSIQNLPSLTFIINGVEFPLPPSSYILSNNGYCTVGVEPTYLSSQNGQPLWILGDVFLRSYYSVYDLGNNRVGFATAA
modifications: pro-form
B9: Karyopherin 2 (1QBK): human protein (protein, UniProt Q92973 1-898, looked up)
Transportin-1: MVWDRQTKMEYEWKPDEQGLQQILQLLKESQSPDTTIQRTVQQKLEQLNQYPDFNNYLIFVLTKLKSEDEPTRSLSGLILKNNVKAHFQNFPNGVTDFIKSECLNNIGDSSPLIRATVGILITTIASKGELQNWPDLLPKLCSLLDSEDYNTCEGAFGALQKICEDSAEILDSDVLDRPLNIMIPKFLQFFKHSSPKIRSHAVACVNQFIISRTQALMLHIDSFIENLFALAGDEEPEVRKNVCRALVMLLEVRMDRLLPHMHNIVEYMLQRTQDQDENVALEACEFWLTLAEQPICKDVLVRHLPKLIPVLVNGMKYSDIDIILLKGDVEEDETIPDSEQDIRPRFHRSRTVAQQHDEDGIEEEDDDDDEIDDDDTISDWNLRKCSAAALDVLANVYRDELLPHILPLLKELLFHHEWVVKESGILVLGAIAEGCMQGMIPYLPELIPHLIQCLSDKKALVRSITCWTLSRYAHWVVSQPPDTYLKPLMTELLKRILDSNKRVQEAACSAFATLEEEACTELVPYLAYILDTLVFAFSKYQHKNLLILYDAIGTLADSVGHHLNKPEYIQMLMPPLIQKWNMLKDEDKDLFPLLECLSSVATALQSGFLPYCEPVYQRCVNLVQKTLAQAMLNNAQPDQYEAPDKDFMIVALDLLSGLAEGLGGNIEQLVARSNILTLMYQCMQDKMPEVRQSSFALLGDLTKACFQHVKPCIADFMPILGTNLNPEFISVCNNATWAIGEISIQMGIEMQPYIPMVLHQLVEIINRPNTPKTLLENTAITIGRLGYVCPQEVAPMLQQFIRPWCTSLRNIRDNEEKDSAFRGICTMISVNPSGVIQDFIFFCDAVASWINPKDDLRDMFCKILHGFKNQVGDENWRRFSDQFPLPLKERLAAFYGV
B10: Inositol monophosphatase (1IMB): human protein (protein, UniProt P29218 1-277, looked up)
Inositol monophosphatase 1: MADPWQECMDYAVTLARQAGEVVCEAIKNEMNVMLKSSPVDLVTATDQKVEKMLISSIKEKYPSHSFIGEESVAAGEKSILTDNPTWIIDPIDGTTNFVHRFPFVAVSIGFAVNKKIEFGVVYSCVEGKMYTARKGKGAFCNGQKLQVSQQEDITKSLLVTELGSSRTPETVRMVLSNMEKLFCIPVHGIRSVGTAAVNMCLVATGGADAYYEMGIHCWDVAGAGIIVTEAGGVLMDVTGGPFDLMSRRVIAANNRILAERIAKEIQVIPLQRDDED
B11: Dihydrofolate reductase (1DRF): human protein (protein, UniProt P00374 1-187, looked up)
Dihydrofolate reductase: MVGSLNCIVAVSQNMGIGKNGDLPWPPLRNEFRYFQRMTTTSSVEGKQNLVIMGKKTWFSIPEKNRPLKGRINLVLSRELKEPPQGAHFLSRSLDDALKLTEQPELANKVDMVWIVGGSSVYKEAMNHPGHLKLFVTRIMQDFESDTFFPEIDLEKYKLLPEYPGVLSDVQEEKGIKYKFEVYEKND
B12: Fructose bisphosphate aldolase (4ALD): human protein (protein, UniProt P04075 2-364, looked up)
Fructose-bisphosphate …: PYQYPALTPEQKKELSDIAHRIVAPGKGILAADESTGSIAKRLQSIGTENTEENRRFYRQLLLTADDRVNPCIGGVILFHETLYQKADDGRPFPQVIKSKGGVVGIKVDKGVVPLAGTNGETTTQGLDGLSERCAQYKKDGADFAKWRCVLKIGEHTPSALAIMENANVLARYASICQQNGIVPIVEPEILPDGDHDLKRCQYVTEKVLAAVYKALSDHHIYLEGTLLKPNMVTPGHACTQKFSHEEIAMATVTALRRTVPPAVTGITFLSGGQSEEEASINLNAINKCPLLKPWALTFSYGRALQASALKAWGGKKENLKAAQEEYVKRALANSLACQGKYTPSGQAGAAASESLFVSNHAY

For one data set the following is noted: aqueous solution, pH 7.4, 37° C., Tris-HCl buffer.
As to B1, the “T1/10 (time to 10% degradation by deamidation)” value is 2.4 days.

Turning to B2, the “T1/10 (time to 10% degradation by deamidation)” value is on record as 3.2 days.

On to B3, for which the “T1/10 (time to 10% degradation by deamidation)” value is given as 2.6 days. On to B4, for which the “T1/10 (time to 10% degradation by deamidation)” value is listed as 4.3 days. Regarding B5, the “T1/10 (time to 10% degradation by deamidation)” value is 3.5 days. For the molecule B6, the “T1/10 (time to 10% degradation by deamidation)” value was 4.0 days. Consider B7, for which the “T1/10 (time to 10% degradation by deamidation)” value was 3.8 days. For the molecule B8, the “T1/10 (time to 10% degradation by deamidation)” value is given as 3.0 days. For the molecule B9, the “T1/10 (time to 10% degradation by deamidation)” value is on record as 0.81 days.

The data set is the same for the next values; noted with them: buffer, pH 7.4.
In the case of B10, the “T1/2 (half-life, deamidation)” value is 15 days. Take B11: the “T1/2 (half-life, deamidation)” value is 25 days.

As to B12, the “T1/2 (half-life, deamidation)” value is listed as 7.6 days.

The data set is the same for the next values; noted with them: pH 7.4.
For the molecule B10, the “T1/10 (time to 10% degradation by deamidation)” value is listed as 2.3 days.

As for B11, the “T1/10 (time to 10% degradation by deamidation)” value is given as 3.8 days.

As for B12, the “T1/10 (time to 10% degradation by deamidation)” value was 1.2 days.
